Results on 41 sequences are retold here after the nanobody polyreactivity screen of Harvey et al. (2022).

The data set can be described thus: yeast display, Sf9 membrane polyspecificity reagent, FACS + sequencing; frameworks hold sequencing errors. In a few lines: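 Synthetic nanobody libraries on Saccharomyces cerevisiae BJ5465 were galactose-induced for 36–48 hours, stained 1 hour at 4 °C with 10% biotinylated, detergent-solubilized Sf9 membrane reagent and enriched on streptavidin microbeads. FACS then separated cells into low and high (top ~1%) gates by anti-HA (expression) and streptavidin (reagent binding) fluorescence. Genes were colony-PCR amplified, MiSeq 2 × 250 sequenced and CDR-length filtered. A clone's polyreactivity label is that of its gate of origin.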
Turning to “QVQLVESGGGLVQAGGSLRLSCAASGNIFDSYAMGWYRQAPGKERELVAAISFSGGNTYYADSVKGRFTISRDNAKNTVYLQMNSLKPEDTAVYYCAADYFAVTPYRAADVAEDYWGQGTQVTVSS”, the “polyreactivity (PSR sort gate)” value is “low polyreactivity”.
The same measure for “QVQLVESGGGLVQAGGSLRLSCAASGFIFQSYAMGWYRQAPGKERELVASISASGGSTYYADSVKGRFTISRDNAKNTVYLQMNSLKPEDTAVYYCAAGYWSYWSLRMDYWGQGTQVTVSS”: “high polyreactivity”.
With “QVQLVESGGGLVQAGGSLRLSCAASGSIFVWYVMGWYRQAPGKERELVAVISRSGGSTYYADSVKGRFTISRDNAKNTVYLQMNSLKPEDTAVYYCAADSRSYYRDVDYWGQGTQVTVSS”, the “polyreactivity (PSR sort gate)” value is on record as “low polyreactivity”.
The entry for “HVQLVESGGGLVQAGGSLRLSCAASGRTFTYNTMGVYRKEPGKERELVAAISSSGGSTYYADSVKGRFTISRDNAKNTVYLQMNSLKPEDTAVYYCAKRYFSSSRYYYWGQGTQVTVSS” is “high polyreactivity”; for “QVQLVESGGGIVQAGGSLRLSCAASGSIFGVYAMGWYRQAPGKERELVAAISSSGGRTYYADSVKGRFTISRDNAKNTVYLQMISLKPEDTAVYYCAAVPWRRSTRYDYWGQGTLVTVSS” it is “high polyreactivity”; for “QVQLVESGGGLVQAGGSLRLSCAASGFTFDRYAMGWYRQAPGKERELVAAISWRGGSTYYADSVKGRFTISRDNAKNTDYLQMNSLKPEDTAVYYCNKGTRHTTAGTPRYDYWGQGTQVTVSS” it is “high polyreactivity”.
Take “QVQLVESGGGLVQAGGSLRLSCAASGSIFIFNAMVWYRQAPGKEREFVARIRRDSSTYYADSVKGRFTISRDNAKNTVYLQMNSLKPEDTAVYYCAAKRVYRRVELNSWGQGTQVTVSS”: the “polyreactivity (PSR sort gate)” value is listed as “low polyreactivity”.
The entry for “QVQLVESGGGLVQAGGSLRLSCASSGRIFRYYDMGWYRQAPGKERELVASITSGGSTNYADSVKGRFTISRDNAKNTVYLQMNSLKPEDTAVYYCAARWGYARANGYDYWGQGTQVTVSS” is “high polyreactivity”.
In the case of “QVQLVESGGGLVQAGGSLRLSCAASGSIFINNAMGWYRQATGKERELVSAIRRGDSTTYADSVKGRFTISRDNAKNTVYLQMNSLKPEDTAVYYCATSPWWYGYAAYGMDYWGQGTQVTVSS”, the “polyreactivity (PSR sort gate)” value is “low polyreactivity”.
The same measure for “QVQLVESGGGLVQAGGSLRLSCAASGRTFSWYTMGWYRQAPGNERELVAVINYSGGSTYYADSVKGRFTISRDNAKNTVYLQMTSLKPEDTAVYYCAARNVVTGYRYDYWGQGTQVTVSS”: “high polyreactivity”.
Consider “QDQLEESGGGLVQAGGSLRLSCASSGRIFAGYAMGWYRQAPGKERELVAAISGSGGSTYYADSVKGRFTISRDNAKNTVYLQMNSLKPEDTAVFYCNAGKTSRFQYDYWGQGTQVTVSS”, for which the “polyreactivity (PSR sort gate)” value was “high polyreactivity”.
As to “QVQLVESGGGLVQAGGSLRLSCAASGRIFKTYAMGWYRPAPGKERELVAAITASGGRTYYADSVKGRFTISRDNAKNTVYLQMNSLKPEDTAVYYCAKRPSYYARNSAYAYLSYGYWGQGTQVTVSS”, the “polyreactivity (PSR sort gate)” value is “low polyreactivity”.
The entry for “QVQLVESRGGLVQAGGSLRLSCAASGITFRYYAMGWYRQEPGKERELVAAINRGGDSTYYADSVKGRFTISRDIAKNTVYLQMNSLKPVDTAVYYCAASSSNKEYDYWGLGTQVTVSS” is “high polyreactivity”; for “QLQLVESGGGLVQAGGSLRLSCAASGLTFQYYDMGRYRQAPGKERELVDVIRGSGTSTYYADSVKGRFTISRDNAKNTVYLQMNCLKPEDTAVYYCAAPYQYRRTGRVLGKYDSWGQGTQVTVSS” it is “high polyreactivity”; for “QVQLVESGGGLVQAGGSLRISCAASGRIFSFYAMGWYRQAPGKERELVAAISYSDGSTYYADSVKGRFTISRDNAKNTVYLQMNSLKPEDTAVYYCAKYGYDHDYNYWGQGTQVTVSS” it is “low polyreactivity”.
The entry for “QVQLVESGGGLVQAGGSLRLSCPASGSTFGYYAMGWYRQAPGKERELVAAITYSVGGTYYADSVKGRFTISRDNAKNTVYLQMNSLKPEDTAVYSCNVDYYVPPAGVTRTGDDDYWGQGTQVTVSS” is “low polyreactivity”; for “QVQLVESGGGLVQAGGSHRLSCAASGRIFTSNTMGWYRQAPGKERELVAAITSSGGSMYYADSVKGRFTISRDNAKNTVYLQMNSLIPEDTAVYYCAADTIGYHYWYDYWGQGTQVTVSS” it is “low polyreactivity”; for “QVQLVESGGGLVQAGGSLRLSFAASGRTFVRYAMVWYRQAPGKERELVAAISWSGGSTYYADSVKGRFTISRDNAKNTVYLQMNSLKPEDTAVYYCAAYYRGGNFDYWGQGTQVTLSS” it is “high polyreactivity”.
“QVQLVESGGGLVQAGGSLRLTCAASGRIFWSYAMGWYRQAPGKERELVARITTGSSTNYADSVKGRFTISRDNAKNTVYLQMNSLKPEDTAVYYCAADVSNYYFAYYYWGQGTQVTVSS”: the “polyreactivity (PSR sort gate)” value is given as “low polyreactivity”.
With “QVQLVESGGGLVQAGCSLRLSCAASGSTFFPNGMGWYRQAPGKERELVAAITQDGGSTYYADSVKGRFTISRDNAKNTVYLQMNSLKPEDTAVYYCAASAGPYYEYGYWGQGTQVTVSS”, the “polyreactivity (PSR sort gate)” value is reported as “low polyreactivity”.
The same measure for “QVQLQESGGGLVQVGGSQSLICAASGNIFYNYAMGWYRHAQGKEREFDATINHGTSINYADSVKGRFTISRDNAKNTVYLQMNSLKPEDTAVYYCAADLSRTDNLFYWGQGTQVTVSS”: “low polyreactivity”.
The entry for “QVQLVESGGGLVQAGGSLRLSCAASGFTFYKYTMGWYRQAPGKERELVAAISARGGSTYYADSVKGRFTISRDNAKNTVYLQMNSLKPEDTAVYYCAADYWRTYVLGYDYWGQGTQVTVSS” is “high polyreactivity”; for “QVQLVESGGGLVQAGGSLRLSCAASGSTFGSYAMGWYRQAPGKERELVAAISGRGGRTSYADSVKGRFTISRDNAKNTVYLQMNSLKPQDTAVYYCAAKRGGLGVTAASLYDYYFWGQGTQVTVSS” it is “high polyreactivity”; for “QVQLQESGGGLVQAGVSLRLSCAASGNINDADIMGCYRQAPGKERELVTSITDGGSTNYADSVKGRFTISRDNAKNTVYLQMNSLKPEDTAVYYCAAIAYPVIPTSFDYNSDYSYWGQGTQVTVSS” it is “low polyreactivity”.
On to “QVQLVESGGGLVQAGGSLRLSCAASGIIFRYYTMGWYRQAPGKERELVAAITQSSGRTYYADSVKGRFTISRDNAKNTVYLQMNCLIPEDTAVFYCNVRPLRSYRAVDYWGQGTQVTVSS”, for which the “polyreactivity (PSR sort gate)” value was “high polyreactivity”.
The entry for “QVQLVESGGGLVQAGGSLRLSCAASGRIFLGNAMGWYRQAPGKERDLVAAITNGGGSTYYADSVKGRFTISRDNAKNTVYLQMNSLKPEDTAVYYCARGYKKSVQRFEYWGQGTQVTVSS” is “high polyreactivity”; for “QVQLVESGGGLVQAGGSLRLSCAASGRTFGPYAMGWSRQAPGKEREFVAAISYSGGSTYYADSVKGRFTISRDNAKNTVYFQITSLKPEDTAVYYCAVDIDSNSGTRDYWGQGTQVTVSS” it is “low polyreactivity”.
Regarding “QVQLVESGAGLVQAGGSLRLSCAASGFTFQNYAMGWYRQAPGKERELVAAIDSRGGRTYYADSVKGRFTISRDNAKNSVYLQMNSLKPEDTAVYYCAVAENKRFGSVGYYYWGQGTQVTVSS”, the “polyreactivity (PSR sort gate)” value is “low polyreactivity”.
The entry for “QVQLVESGGGLVQAGGSLRLSCAASGITFRYYAMGWYRPAPGKERELVASITSGGVNTYYADSVKGRFTISRDNAKNTVYLQMNSLKPEDTAVYYCATTYVGETLTGPGDYWGQGTQVTVSS” is “low polyreactivity”; for “QVQLVESGGGLVQAGGSLRLSCAASGFTFSAYAIGWYRQAPGKETELVAAITLRGGSTYYADSVKGRFTISRDNAKNTVYLQMNSLNPEDTAVYYCAAERIYVAYDYWGQGTQLTVSS” it is “low polyreactivity”; for “QVQLVESGGGLVQAGGSLRLSCAASGFTFPYNAMGWYRQPPGKERELVAAISRGAGRTYYADSVKGRFTISRDNAKNTVYLQMNSLKQEDTAVYYCAKAPGQDTPYPYGYWGQGTQVTVSS” it is “high polyreactivity”.
The same measure for “QVQLVESGGGLVPAGGSLRLSCAASGRIFWSNAMGWYRQAPGKERELVAAITWRGGSTYADSVKGRFTISRDNAKNTVYLQMNSLKPEDTAVFYCAASPSGWRYDYWGQGTQVTVSS”: “high polyreactivity”; for “QVQLVESGGGLVQAGGSLRLSCAASGFIFSYNVMGWYRQAPGKERELVAAISSGGGRTYYADSVKGRFTISRDNAKNTVYLQMNSLKPEDTAVYYCNAYRLSRVQLYYWGQGTQVTVSS”: “high polyreactivity”; for “QVQLVESGGGLVQAGGSLRLSCAASGGIFSVYAMGWYRQAPGKERELVAAITTSGGSTYYADSVKGRFTISRDNAKNTVYLQMNSLKPEDTAVYYCAADYPPTFYYWYEEYEYWGQGTQVTVSS”: “low polyreactivity”.
For “QVQLVESGGGLVQAGGSLRLSCAASGFIFGLYAMGWYRQAPGKERELVAAISRRGGSTYYADSVKGRFTISLDNAKNTVYLQMNSLKPEDTAVYYCATDHSYIDDWGQGTEVTVSS”, the “polyreactivity (PSR sort gate)” value is “high polyreactivity”.
Turning to “QVQLVESGGGLVQAGGSLRLSCAASGAIFESNAMGWYRQAPGKEREFVAAIDQNDGSSNYADSVKGRFTISRDNAKNTVYLQMNSLKPEDSAVYYCAAEVPGYWYLDYEYWGHGTQVTVSS”, the “polyreactivity (PSR sort gate)” value was “low polyreactivity”.
For the sequence “QVQLVESGGGLVQAGGSLRLSCAASGFTFIYYAMGWYRQAPGKERELVAAISRRGGSTYYADSVKGRFTISRDNAKNTVYLQMNSLKPEDTAVYYCAADYTSAILRSDYWGQGTQVTVSS”, the “polyreactivity (PSR sort gate)” value was “high polyreactivity”.
Regarding “QVQLVESGGGLVQAGGSLRLSCAASGNIFLYYAMGWYRQAPGKERELVADIDSSGASTYYADSVKGRFTMSRDNAKNTVYLQMNSLKPEDTAVYYCAAEFHWWYAGYDYGYWGQGTQVTVSS”, the “polyreactivity (PSR sort gate)” value was “low polyreactivity”.
The same measure for “QVRLVESGGGLVQAGGSLRLSCAASGRIFVYNAMGWYRQPPGKERELVASISWSGDSTYADSVKGRFTISRDNAKNTVYLQMNSLKPEDTAVYYCAAYSQADYQNMDYWGQGTQVTVSS”: “low polyreactivity”; for “QVQLVESGGGLVQAGGSLRLSCAASGITFKSYDMGWYRQAPGKERELVAAITSGVSTHYADSVKGRFTISRDNAKNTVYLQMNSLKPEDTAVYYCAADYTWYYPYWIMDYWGQGTQVTVSS”: “low polyreactivity”; for “QVQLVESGGGLVQEGGSLRLSCAASGFTFAYYAMGWYRQAPGKERELVASISYNGGITNYADSVKGRFTISRYNAKNTVYLQMNSLKPEDTAVYYCAAGVFFFTFDYWGQGTQVTVSS”: “low polyreactivity”.
